Test system: Escherichia coli TOP10
Assay: shrunken log2 fold change of peptide-encoding DNA abundance (4.5 h post-induction vs induction); higher = less antimicrobial activity (less host growth inhibition)
Conditions: time post-induction: 4.5 h; library: site-saturation at positions 5, 18, 19, 20
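Further: peptides expressed intracellularly from a pBAD plasmid library in pooled LB shake-flask culture, induced with 0.3% L-arabinose, DNA abundance read by NGS, three biological replicates, DESeq2 with apeglm shrinkage.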

Row | Sequence | shrunken log2 fold change
1 | RRIRDRPPRLPRPRPRPEKMPRP | -0.00458
2 | RRIRGRPPRLPRPRPRPYMGPRP | -0.00228
3 | RRIRQRPPRLPRPRPRPEDMPRP | 0.0353
4 | RRIRRRPPRLPRPRPRPPKRPRP | 0.686
5 | RRIRLRPPRLPRPRPRPKLMPRP | -0.162
6 | RRIRRRPPRLPRPRPRPDMKPRP | -0.124
7 | RRIRNRPPRLPRPRPRPHPMPRP | 0.0281
8 | RRIRCRPPRLPRPRPRPTNYPRP | 0.263
9 | RRIRQRPPRLPRPRPRPKGNPRP | -0.365
10 | RRIRRRPPRLPRPRPRPLLMPRP | 0.395
11 | RRIRYRPPRLPRPRPRPCLNPRP | -0.216
12 | RRIRQRPPRLPRPRPRPMYCPRP | -0.526
13 | RRIRQRPPRLPRPRPRPGVSPRP | -0.0696
14 | RRIRCRPPRLPRPRPRPDAMPRP | 0.0677
15 | RRIRGRPPRLPRPRPRPCALPRP | 0.594
16 | RRIRGRPPRLPRPRPRPQMAPRP | 0.923
17 | RRIRQRPPRLPRPRPRPGHYPRP | -0.00181
18 | RRIRQRPPRLPRPRPRPEPEPRP | 0.813
19 | RRIRYRPPRLPRPRPRPNYAPRP | -0.223
20 | RRIRYRPPRLPRPRPRPHGFPRP | 0.0238
21 | RRIRCRPPRLPRPRPRPQAGPRP | 0.109
22 | RRIRPRPPRLPRPRPRPLDTPRP | 1
23 | RRIRDRPPRLPRPRPRPYWEPRP | -0.0419
24 | RRIRNRPPRLPRPRPRPKRNPRP | -0.189
25 | RRIRDRPPRLPRPRPRPVWGPRP | 0.67

Row | Sequence | shrunken log2 fold change
26 | RRIRNRPPRLPRPRPRPDYLPRP | -0.142
27 | RRIRYRPPRLPRPRPRPCAPPRP | -0.329
28 | RRIRMRPPRLPRPRPRPYKGPRP | -0.046
29 | RRIRPRPPRLPRPRPRPCEEPRP | 0.205
30 | RRIRQRPPRLPRPRPRPNYCPRP | -0.0656
31 | RRIRYRPPRLPRPRPRPDIVPRP | -0.295
32 | RRIRHRPPRLPRPRPRPHTQPRP | 0.0972
33 | RRIRNRPPRLPRPRPRPCYLPRP | -1.19
34 | RRIRIRPPRLPRPRPRPNIVPRP | -0.665
35 | RRIRLRPPRLPRPRPRPTGCPRP | 0.19
36 | RRIRERPPRLPRPRPRPEFHPRP | -0.207
37 | RRIRARPPRLPRPRPRPQGPPRP | -0.0931
38 | RRIRMRPPRLPRPRPRPGHKPRP | -0.231
39 | RRIRLRPPRLPRPRPRPKMNPRP | -0.37
40 | RRIRHRPPRLPRPRPRPDCNPRP | -0.18
41 | RRIRKRPPRLPRPRPRPRTTPRP | 0.792
42 | RRIRHRPPRLPRPRPRPELKPRP | 0.127
43 | RRIRPRPPRLPRPRPRPNYFPRP | -0.435
44 | RRIRYRPPRLPRPRPRPYYFPRP | -2.19
45 | RRIRMRPPRLPRPRPRPEFYPRP | -0.056
46 | RRIRGRPPRLPRPRPRPTNKPRP | 0.242
47 | RRIRVRPPRLPRPRPRPGYLPRP | -0.14
48 | RRIRTRPPRLPRPRPRPAAFPRP | -0.128
49 | RRIRARPPRLPRPRPRPACTPRP | 0.668
50 | RRIRKRPPRLPRPRPRPWYYPRP | -0.198

Row | Sequence | shrunken log2 fold change
51 | RRIRPRPPRLPRPRPRPISIPRP | -0.109
52 | RRIRDRPPRLPRPRPRPDPWPRP | 0.295
53 | RRIRHRPPRLPRPRPRPGKVPRP | -0.0067
54 | RRIRQRPPRLPRPRPRPWWTPRP | -0.01
55 | RRIRPRPPRLPRPRPRPWTKPRP | 0.0459
56 | RRIRSRPPRLPRPRPRPVDAPRP | 0.0786
57 | RRIRLRPPRLPRPRPRPEPQPRP | 0.728
58 | RRIRARPPRLPRPRPRPIFKPRP | -0.0373
59 | RRIRERPPRLPRPRPRPDREPRP | -0.0729
60 | RRIRHRPPRLPRPRPRPVYLPRP | -0.406
61 | RRIRARPPRLPRPRPRPVYQPRP | -0.068
62 | RRIRQRPPRLPRPRPRPLMTPRP | 0.0563
63 | RRIRGRPPRLPRPRPRPSWHPRP | 0.0802
64 | RRIRVRPPRLPRPRPRPQNNPRP | -0.66
65 | RRIRNRPPRLPRPRPRPGEQPRP | 0.137
66 | RRIRDRPPRLPRPRPRPELDPRP | 1.47
67 | RRIRLRPPRLPRPRPRPCHDPRP | -0.116
68 | RRIRHRPPRLPRPRPRPTSTPRP | -0.199
69 | RRIRHRPPRLPRPRPRPKMIPRP | -0.254
70 | RRIRLRPPRLPRPRPRPSGMPRP | -0.204
71 | RRIRFRPPRLPRPRPRPLRWPRP | 0.59
72 | RRIRKRPPRLPRPRPRPLGDPRP | 0.227
73 | RRIRFRPPRLPRPRPRPQFHPRP | -0.839
74 | RRIRDRPPRLPRPRPRPYSLPRP | -0.017
75 | RRIRSRPPRLPRPRPRPEDSPRP | 0.00839

Row | Sequence | shrunken log2 fold change
76 | RRIRMRPPRLPRPRPRPYALPRP | 0.0157
77 | RRIRFRPPRLPRPRPRPMMIPRP | -0.018
78 | RRIRWRPPRLPRPRPRPYVFPRP | -0.142
79 | RRIRFRPPRLPRPRPRPKKYPRP | -0.242
80 | RRIRARPPRLPRPRPRPRVKPRP | 0.488
81 | RRIRARPPRLPRPRPRPQFCPRP | -0.0724
82 | RRIRPRPPRLPRPRPRPFWPPRP | 0.199
83 | RRIRIRPPRLPRPRPRPVTPPRP | -0.0315
84 | RRIRCRPPRLPRPRPRPINSPRP | -0.389
85 | RRIRPRPPRLPRPRPRPYFPPRP | -0.26
86 | RRIRTRPPRLPRPRPRPCYYPRP | 0.0075
87 | RRIRHRPPRLPRPRPRPVYMPRP | -0.2
88 | RRIRRRPPRLPRPRPRPKQDPRP | 0.38
89 | RRIRVRPPRLPRPRPRPYTRPRP | -0.0163
90 | RRIRARPPRLPRPRPRPHMQPRP | 2.87
91 | RRIRFRPPRLPRPRPRPSKVPRP | -0.293
92 | RRIRSRPPRLPRPRPRPITLPRP | -0.333
93 | RRIRPRPPRLPRPRPRPFAYPRP | -0.135
94 | RRIRVRPPRLPRPRPRPLMNPRP | -0.649
95 | RRIRFRPPRLPRPRPRPWHAPRP | -0.162
96 | RRIRSRPPRLPRPRPRPPRQPRP | 0.389
97 | RRIRTRPPRLPRPRPRPRQTPRP | 0.0617
98 | RRIRERPPRLPRPRPRPFWTPRP | -0.24
99 | RRIRNRPPRLPRPRPRPYPFPRP | 0.0247
100 | RRIRLRPPRLPRPRPRPALQPRP | 0.215

Row | Sequence | shrunken log2 fold change
101 | RRIRTRPPRLPRPRPRPNVAPRP | 0.174
102 | RRIRIRPPRLPRPRPRPGNDPRP | -0.0662
103 | RRIRNRPPRLPRPRPRPLNYPRP | -0.29
104 | RRIRKRPPRLPRPRPRPFCHPRP | 0.00474
105 | RRIRFRPPRLPRPRPRPGLGPRP | 0.603
106 | RRIRLRPPRLPRPRPRPMPWPRP | 0.276
107 | RRIRVRPPRLPRPRPRPVEHPRP | 0.00181
108 | RRIRLRPPRLPRPRPRPVRLPRP | 0.576
109 | RRIRCRPPRLPRPRPRPSIFPRP | -0.575
110 | RRIRIRPPRLPRPRPRPNNYPRP | -0.996
111 | RRIRHRPPRLPRPRPRPDIHPRP | -0.171
112 | RRIRSRPPRLPRPRPRPTEEPRP | 0.234
113 | RRIRARPPRLPRPRPRPWTHPRP | 0.04
114 | RRIRERPPRLPRPRPRPPQTPRP | 0.223
115 | RRIRDRPPRLPRPRPRPVHSPRP | -0.243
116 | RRIRARPPRLPRPRPRPTRHPRP | 0.615
117 | RRIRWRPPRLPRPRPRPMFGPRP | -0.0457
118 | RRIRSRPPRLPRPRPRPSGNPRP | -0.571
119 | RRIRWRPPRLPRPRPRPPYGPRP | -0.0783
120 | RRIRMRPPRLPRPRPRPMDMPRP | 0.482
121 | RRIRHRPPRLPRPRPRPPSLPRP | -0.0977
122 | RRIRHRPPRLPRPRPRPDRYPRP | -0.236
123 | RRIRDRPPRLPRPRPRPQGMPRP | -0.00277
124 | RRIRGRPPRLPRPRPRPSDYPRP | 0.0378
125 | RRIRERPPRLPRPRPRPGFTPRP | 0.00165
